What was measured:
[1] = target: T1, recombinant human CD32b (human, UniProt P31994 46-217); test: ELISA on recombinant human CD32b, hybridoma screening
T1 sequence: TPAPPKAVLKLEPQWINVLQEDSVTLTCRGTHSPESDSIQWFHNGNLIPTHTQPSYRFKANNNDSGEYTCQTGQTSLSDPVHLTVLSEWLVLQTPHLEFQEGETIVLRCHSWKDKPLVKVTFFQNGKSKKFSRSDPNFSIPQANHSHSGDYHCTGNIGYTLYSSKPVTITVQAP
From the text: (§1) In order to develop a specific murine monoclonal antibody against Human CD32a using a peptide antigen […] (SEQ ID NO: 40), different criteria were taken into account when designing the peptide: (1) The peptide must not include residue # 167 submitted to a strong polymorphism; (2) The peptide should be specific for CD32a vs CD32b as much as possible to avoid cross-reactivity of anti-CD32a antibody with human CD32b. Thus, a first step was the selection, design and synthesis of a relevant peptide. In order to enhance the immune response, the peptide to carrier conjugation technique (KLH) was used. The peptide thus produced was used in the immunization of 5 mice with an optimized protocol of 45 to 74 days (4-6 injections). The immune response was monitored by bleeding and titration tests (ELISA against the peptide and recombinant human CD32a and CD32b in parallel). Following the results of these tests, the spleen cells from the best mouse were fused with a mouse myeloma cell line. The culture of the hybridomas obtained was carried out in selective medium before the screens for the selection at the polyclonal stage of specific hybridomas against the peptide in ELISA (10× 96-well plates). Further screening for clones positive against recombinant human CD32a and CD32b was performed in parallel. […]

[2] = target: T2, recombinant human CD32a (human, UniProt P12318 34-217); test: ELISA on recombinant human CD32a, hybridoma screening
T2 sequence: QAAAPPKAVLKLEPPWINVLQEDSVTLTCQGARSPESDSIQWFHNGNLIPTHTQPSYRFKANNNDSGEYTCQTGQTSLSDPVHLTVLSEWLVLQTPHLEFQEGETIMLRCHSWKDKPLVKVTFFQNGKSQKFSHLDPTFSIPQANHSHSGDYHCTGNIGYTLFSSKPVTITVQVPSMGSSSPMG
From the text: as §1

B1: murine monoclonal anti-human CD32a antibody from hybridoma 8E2 (antibody, V domains shown)
VH: EVKLQESGPSLVQPGGSMNLSCVASGFTFSTHWMSWVRQSPEKGLEWIAEIRLKTDNYATHYAESVKGLFTISRDDSKSRLYLQMKSLRTEDSGIYYCTTHFAYWGQGTLV
VL: DVVMAQSPLSLPVSLGDQASISCRSSQSLVDSHGNTYLHWYLQKPGQSPKLLIYKVANRFSGVPDRFSGSGSGTDFTLKISRVEAEDLGVYFCSQSTHVPPVTFGAGTKLELK
notes: Tested as hybridoma supernatant in the ELISA screens
- binding result [1]: no binding
- binding result [2]: binds

Source: patent US20210405026A1 (CENTRE NATIONAL DE LA RECHERCHE SCIENTIFIQUE, published 2021)
